# Assay results reported in IntAct's records for PubMed 17698606.
# B1: S phase cyclin A-associated protein in the endoplasmic reticulum (Homo sapiens), Q9BY12 (parent)
# chain: MMASFQRSNSHDKVRRIVAEEGRTARNLIAWSVPLESKDDDGKPKCQTGGKSKRTIQGTHKTTKQSTAVDCKITSSTTGDKHFDKSPTKTRHPRKIDLRARYWAFLFDNLRRAVDEIYVTCESDQSVVECKEVLMMLDNYVRDFKALIDWIQLQEKLEKTDAQSRPTSLAWEVKKMSPGRHVIPSPSTDRINVTSNARRSLNFGGSTGTVPAPRLAPTGVSWADKVKAHHTGSTASSEITPAQSCPPMTVQKASRKNERKDAEGWETVQRGRPIRSRSTAVMPKVSLATEATRSKDDSDKENVCLLPDESIQKGQFVGDGTSNTIESHPKDSLHSCDHPLAEKTQFTVSTLDDVKNSGSIRDNYVRTSEISAVHIDTECVSVMLQAGTPPLQVNEEKFPAEKARIENEMDPSDISNSMAEVLAKKEELADRLEKANEEAIASAIAEEEQLTREIEAEENNDINIETDNDSDFSASMGSGSVSFCGMSMDWNDVLADYEARESWRQNTSWGDIVEEEPARPPGHGIHMHEKLSSPSRKRTIAESKKKHEEKQMKAQQLREKLREEKTLKLQKLLEREKDVRKWKEELLDQRRRMMEEKLLHAEFKREVQLQAIVKKAQEEEAKVNEIAFINTLEAQNKRHDVLSKLKEYEQRLNELQEERQRRQEEKQARDEAVQERKRALEAERQARVEELLMKRKEQEARIEQQRQEKEKAREDAARERARDREERLAALTAAQQEAMEELQKKIQLKHDESIRRHMEQIEQRKEKAAELSSGRHANTDYAPKLTPYERKKQCSLCNVLISSEVYLFSHVKGRKHQQAVRENTSIQGRELSDEEVEHLSLKKYIIDIVVESTAPAEALKDGEERQKNKKKAKKIKARMNFRAKEYESLMETKNSGSDSPYKAKLQRLAKDLLKQVQVQDSGSWANNKVSALDRTLGEITRILEKENVADQIAFQAAGGLTALEHILQAVVPATNVNTVLRIPPKSLCNAINVYNLTCNNCSENCSDVLFSNKITFLMDLLIHQLTVYVPDENNTILGRNTNKQVFEGLTTGLLKVSAVVLGCLIANRPDGNCQPATPKIPTQEMKNKPSQGDPFNNRVQDLISYVVNMGLIDKLCACFLSVQGPVDENPKMAIFLQHAAGLLHAMCTLCFAVTGRSYSIFDNNRQDPTGLTAALQATDLAGVLHMLYCVLFHGTILDPSTASPKENYTQNTIQVAIQSLRFFNSFAALHLPAFQSIVGAEGLSLAFRHMASSLLGHCSQVSCESLLHEVIVCVGYFTVNHPDNQVIVQSGRHPTVLQKLCQLPFQYFSDPRLIKVLFPSLIAACYNNHQNKIILEQEMSCVLLATFIQDLAQTPGQAENQPYQPKGKCLGSQDYLELANRFPQQAWEEARQFFLKKEKK
# Variants of: B1
# Conditions: with cdk2_human CDK2, P24941
row,effect of a mutation on the interaction,Variant
1,with no effect,R26A;N27A;L28A
2,disrupting interaction strength,R199A;S200A;L201A
3,with no effect,R678A;L680A
